Key:
Test in all cases: cell-based or functional assay
hNav1.1 (human) = hNav1.1 (human) (UniProt P35498)
hNav1.2 (human) = hNav1.2 (human) (UniProt Q99250)
hNav1.3 (human) = hNav1.3 (human) (UniProt Q9NY46)
hNav1.4 (human) = hNav1.4 (human) (UniProt P35499)
hNav1.5 (human) = hNav1.5 (human) (UniProt Q14524)
hNav1.6 (human) = hNav1.6 (human) (UniProt Q9UQD0)
hNav1.7 (human) = hNav1.7 (human) (UniProt Q15858)

Substance	fold selectivity of hNav1.7 over this channel (hNav1.1 (human))	pIC50, whole-cell patch clamp (QPatch 16X) (hNav1.1 (human))	fold selectivity of hNav1.7 over this channel (hNav1.2 (human))	pIC50, whole-cell patch clamp (QPatch 16X) (hNav1.2 (human))	fold selectivity of hNav1.7 over this channel (hNav1.3 (human))	pIC50, whole-cell patch clamp (QPatch 16X) (hNav1.3 (human))	fold selectivity of hNav1.7 over this channel (hNav1.4 (human))	pIC50, whole-cell patch clamp (QPatch 16X) (hNav1.4 (human))	fold selectivity of hNav1.7 over this channel (hNav1.5 (human))	pIC50, whole-cell patch clamp (QPatch 16X) (hNav1.5 (human))	fold selectivity of hNav1.7 over this channel (hNav1.6 (human))	pIC50, whole-cell patch clamp (QPatch 16X) (hNav1.6 (human))	pIC50, whole-cell patch clamp (QPatch 16X) (hNav1.7 (human))	recovery of currents after washout (hNav1.7 (human))	IC50, automated whole-cell patch clamp (hNav1.7 (human))
synthetic Hsp1a (peptide)	40 fold	6.39 M	28 fold	6.52 M	> 100 fold	< 6 M	> 100 fold	< 6 M	> 100 fold	< 6 M	> 100 fold	< 6 M	7.98 M	10 min	
µ-theraphotoxin-Hsp1a (peptide)															13 nM
